Measurements: the supplement of paper PMC10567573

B1: CD69 (parent)
chain: FVAENSSLHPESGQENDATSPHFS

Variants of: B1
Test: protein stability index of a GFP-peptide fusion (GPS, HEK-293T) (PSI 1-6); higher = more stable
Details: c terminus: a fixed tail appended
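Further: lentivirally expressed fusions sorted by FACS into six bins by GFP to DsRed ratio, PSI derived from sequencing read proportions per bin multiplied by bin number.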

| Variant | protein stability index |
| --- | --- |
| FVAENSWLHPESGQENDATSPHFS | 3.07 |
| FVAENSYLHPESGQENDATSPHFS | 1.93 |
| FVAENSSAHPESGQENDATSPHFS | 3.41 |
| FVAENSSCHPESGQENDATSPHFS | 2.8 |
| FVAENSSDHPESGQENDATSPHFS | 3.62 |
| FVAENSSEHPESGQENDATSPHFS | 3.86 |
| FVAENSSFHPESGQENDATSPHFS | 2.4 |
| FVAENSSGHPESGQENDATSPHFS | 3.78 |
| FVAENSSHHPESGQENDATSPHFS | 3.04 |
| FVAENSSIHPESGQENDATSPHFS | 3.24 |
| FVAENSSKHPESGQENDATSPHFS | 2.68 |
| FVAENSSMHPESGQENDATSPHFS | 3.06 |
| FVAENSSNHPESGQENDATSPHFS | 3.65 |
| FVAENSSPHPESGQENDATSPHFS | 3.41 |
| FVAENSSQHPESGQENDATSPHFS | 3.62 |
| FVAENSSRHPESGQENDATSPHFS | 2.49 |
| FVAENSSSHPESGQENDATSPHFS | 3.75 |
| FVAENSSTHPESGQENDATSPHFS | 3.64 |
| FVAENSSVHPESGQENDATSPHFS | 3.01 |
| FVAENSSWHPESGQENDATSPHFS | 1.72 |
| FVAENSSYHPESGQENDATSPHFS | 2.28 |
| FVAENSSLAPESGQENDATSPHFS | 3.38 |
| FVAENSSLCPESGQENDATSPHFS | 3.15 |
| FVAENSSLDPESGQENDATSPHFS | 3.8 |

| Variant | protein stability index |
| --- | --- |
| FVAENSSLEPESGQENDATSPHFS | 4.49 |
| FVAENSSLFPESGQENDATSPHFS | 2.95 |
| FVAENSSLGPESGQENDATSPHFS | 3.4 |
| FVAENSSLIPESGQENDATSPHFS | 2.9 |
| FVAENSSLKPESGQENDATSPHFS | 3.62 |
| FVAENSSLLPESGQENDATSPHFS | 2.96 |
| FVAENSSLMPESGQENDATSPHFS | 3.08 |
| FVAENSSLNPESGQENDATSPHFS | 2.8 |
| FVAENSSLPPESGQENDATSPHFS | 3.6 |
| FVAENSSLQPESGQENDATSPHFS | 3.5 |
| FVAENSSLRPESGQENDATSPHFS | 2.79 |
| FVAENSSLSPESGQENDATSPHFS | 3.32 |
| FVAENSSLTPESGQENDATSPHFS | 3.7 |
| FVAENSSLVPESGQENDATSPHFS | 3.03 |
| FVAENSSLWPESGQENDATSPHFS | 1.61 |
| FVAENSSLYPESGQENDATSPHFS | 2.88 |
| FVAENSSLHAESGQENDATSPHFS | 3.06 |
| FVAENSSLHCESGQENDATSPHFS | 2.84 |
| FVAENSSLHDESGQENDATSPHFS | 3.32 |
| FVAENSSLHEESGQENDATSPHFS | 3.54 |
| FVAENSSLHFESGQENDATSPHFS | 2.48 |
| FVAENSSLHGESGQENDATSPHFS | 3.29 |
| FVAENSSLHHESGQENDATSPHFS | 3.61 |
| FVAENSSLHIESGQENDATSPHFS | 3.23 |

| Variant | protein stability index |
| --- | --- |
| FVAENSSLHKESGQENDATSPHFS | 2.98 |
| FVAENSSLHLESGQENDATSPHFS | 2.9 |
| FVAENSSLHMESGQENDATSPHFS | 2.46 |
| FVAENSSLHNESGQENDATSPHFS | 3.63 |
| FVAENSSLHQESGQENDATSPHFS | 3.45 |
| FVAENSSLHRESGQENDATSPHFS | 2.56 |
| FVAENSSLHSESGQENDATSPHFS | 2.52 |
| FVAENSSLHTESGQENDATSPHFS | 3.13 |
| FVAENSSLHVESGQENDATSPHFS | 3.22 |
| FVAENSSLHWESGQENDATSPHFS | 2.43 |
| FVAENSSLHYESGQENDATSPHFS | 3.15 |
| FVAENSSLHPASGQENDATSPHFS | 2.51 |
| FVAENSSLHPCSGQENDATSPHFS | 1.96 |
| FVAENSSLHPDSGQENDATSPHFS | 3.22 |
| FVAENSSLHPFSGQENDATSPHFS | 1.82 |
| FVAENSSLHPGSGQENDATSPHFS | 2.46 |
| FVAENSSLHPHSGQENDATSPHFS | 2.36 |
| FVAENSSLHPISGQENDATSPHFS | 2.39 |
| FVAENSSLHPKSGQENDATSPHFS | 2.35 |
| FVAENSSLHPLSGQENDATSPHFS | 1.6 |
| FVAENSSLHPMSGQENDATSPHFS | 2.36 |
| FVAENSSLHPNSGQENDATSPHFS | 3.21 |
| FVAENSSLHPPSGQENDATSPHFS | 2.55 |
| FVAENSSLHPQSGQENDATSPHFS | 2.48 |

| Variant | protein stability index |
| --- | --- |
| FVAENSSLHPRSGQENDATSPHFS | 2.12 |
| FVAENSSLHPSSGQENDATSPHFS | 2.52 |
| FVAENSSLHPTSGQENDATSPHFS | 2.84 |
| FVAENSSLHPVSGQENDATSPHFS | 2.38 |
| FVAENSSLHPWSGQENDATSPHFS | 2.05 |
| FVAENSSLHPYSGQENDATSPHFS | 2.22 |
| FVAENSSLHPEAGQENDATSPHFS | 2.99 |
| FVAENSSLHPECGQENDATSPHFS | 2.73 |
| FVAENSSLHPEDGQENDATSPHFS | 3.25 |
| FVAENSSLHPEEGQENDATSPHFS | 3.83 |
| FVAENSSLHPEFGQENDATSPHFS | 2.39 |
| FVAENSSLHPEGGQENDATSPHFS | 2.9 |
| FVAENSSLHPEHGQENDATSPHFS | 2.64 |
| FVAENSSLHPEIGQENDATSPHFS | 2.86 |
| FVAENSSLHPEKGQENDATSPHFS | 2.66 |
| FVAENSSLHPELGQENDATSPHFS | 2.46 |
| FVAENSSLHPEMGQENDATSPHFS | 2.87 |
| FVAENSSLHPENGQENDATSPHFS | 3.05 |
| FVAENSSLHPEPGQENDATSPHFS | 3.39 |
| FVAENSSLHPEQGQENDATSPHFS | 2.88 |
| FVAENSSLHPERGQENDATSPHFS | 2.38 |
| FVAENSSLHPETGQENDATSPHFS | 3.14 |
| FVAENSSLHPEVGQENDATSPHFS | 3.42 |
| FVAENSSLHPEWGQENDATSPHFS | 1.83 |

| Variant | protein stability index |
| --- | --- |
| FVAENSSLHPEYGQENDATSPHFS | 2.39 |
| FVAENSSLHPESAQENDATSPHFS | 2.69 |
| FVAENSSLHPESCQENDATSPHFS | 2.89 |
| FVAENSSLHPESDQENDATSPHFS | 3.4 |
| FVAENSSLHPESEQENDATSPHFS | 3.41 |
| FVAENSSLHPESFQENDATSPHFS | 2.69 |
| FVAENSSLHPESHQENDATSPHFS | 2.46 |
| FVAENSSLHPESIQENDATSPHFS | 2.61 |
| FVAENSSLHPESKQENDATSPHFS | 3.24 |
| FVAENSSLHPESLQENDATSPHFS | 2.49 |
| FVAENSSLHPESMQENDATSPHFS | 3.38 |
| FVAENSSLHPESNQENDATSPHFS | 3.33 |
| FVAENSSLHPESPQENDATSPHFS | 3.32 |
| FVAENSSLHPESQQENDATSPHFS | 3.09 |
| FVAENSSLHPESRQENDATSPHFS | 2.49 |
| FVAENSSLHPESSQENDATSPHFS | 3.31 |
| FVAENSSLHPESTQENDATSPHFS | 3.59 |
| FVAENSSLHPESVQENDATSPHFS | 3.21 |
| FVAENSSLHPESWQENDATSPHFS | 1.97 |
| FVAENSSLHPESYQENDATSPHFS | 3.06 |
| FVAENSSLHPESGAENDATSPHFS | 3.06 |
| FVAENSSLHPESGCENDATSPHFS | 2.95 |
| FVAENSSLHPESGDENDATSPHFS | 3.93 |
| FVAENSSLHPESGEENDATSPHFS | 3.51 |

| Variant | protein stability index |
| --- | --- |
| FVAENSSLHPESGFENDATSPHFS | 2.84 |
| FVAENSSLHPESGGENDATSPHFS | 2.58 |
| FVAENSSLHPESGHENDATSPHFS | 3.47 |
| FVAENSSLHPESGIENDATSPHFS | 3.04 |
| FVAENSSLHPESGKENDATSPHFS | 3.13 |
| FVAENSSLHPESGLENDATSPHFS | 2.87 |
| FVAENSSLHPESGMENDATSPHFS | 3.28 |
| FVAENSSLHPESGNENDATSPHFS | 2.87 |
| FVAENSSLHPESGPENDATSPHFS | 2.66 |
| FVAENSSLHPESGRENDATSPHFS | 2.76 |
| FVAENSSLHPESGSENDATSPHFS | 2.64 |
| FVAENSSLHPESGTENDATSPHFS | 2.99 |
| FVAENSSLHPESGVENDATSPHFS | 3.2 |
| FVAENSSLHPESGWENDATSPHFS | 2.48 |
| FVAENSSLHPESGYENDATSPHFS | 2.4 |
| FVAENSSLHPESGQANDATSPHFS | 2.88 |
| FVAENSSLHPESGQCNDATSPHFS | 2.57 |
| FVAENSSLHPESGQDNDATSPHFS | 3.06 |
| FVAENSSLHPESGQFNDATSPHFS | 1.91 |
| FVAENSSLHPESGQGNDATSPHFS | 2.59 |
| FVAENSSLHPESGQHNDATSPHFS | 2.76 |
| FVAENSSLHPESGQINDATSPHFS | 2.51 |
| FVAENSSLHPESGQKNDATSPHFS | 2.76 |
| FVAENSSLHPESGQLNDATSPHFS | 2.12 |

| Variant | protein stability index |
| --- | --- |
| FVAENSSLHPESGQMNDATSPHFS | 2.83 |
| FVAENSSLHPESGQNNDATSPHFS | 2.6 |
| FVAENSSLHPESGQPNDATSPHFS | 2.32 |
| FVAENSSLHPESGQQNDATSPHFS | 3.05 |
| FVAENSSLHPESGQRNDATSPHFS | 2.19 |
| FVAENSSLHPESGQSNDATSPHFS | 2.11 |
| FVAENSSLHPESGQTNDATSPHFS | 2.78 |
| FVAENSSLHPESGQVNDATSPHFS | 2.67 |
| FVAENSSLHPESGQWNDATSPHFS | 1.95 |
| FVAENSSLHPESGQYNDATSPHFS | 2.08 |
| FVAENSSLHPESGQEADATSPHFS | 2.51 |
| FVAENSSLHPESGQECDATSPHFS | 2.73 |
| FVAENSSLHPESGQEDDATSPHFS | 3.61 |
| FVAENSSLHPESGQEEDATSPHFS | 3.05 |
| FVAENSSLHPESGQEFDATSPHFS | 2.81 |
| FVAENSSLHPESGQEGDATSPHFS | 2.88 |
| FVAENSSLHPESGQEHDATSPHFS | 3 |
| FVAENSSLHPESGQEIDATSPHFS | 3.01 |
| FVAENSSLHPESGQEKDATSPHFS | 3.29 |
| FVAENSSLHPESGQELDATSPHFS | 2.81 |
| FVAENSSLHPESGQEMDATSPHFS | 2.56 |
| FVAENSSLHPESGQEPDATSPHFS | 2.6 |
| FVAENSSLHPESGQEQDATSPHFS | 3.37 |
| FVAENSSLHPESGQERDATSPHFS | 2.66 |

| Variant | protein stability index |
| --- | --- |
| FVAENSSLHPESGQESDATSPHFS | 3.19 |
| FVAENSSLHPESGQETDATSPHFS | 2.8 |
| FVAENSSLHPESGQEVDATSPHFS | 3.13 |
| FVAENSSLHPESGQEWDATSPHFS | 2.11 |
| FVAENSSLHPESGQEYDATSPHFS | 2.72 |
| FVAENSSLHPESGQENAATSPHFS | 3.79 |
| FVAENSSLHPESGQENCATSPHFS | 2.31 |
| FVAENSSLHPESGQENEATSPHFS | 2.82 |
| FVAENSSLHPESGQENFATSPHFS | 2.05 |
| FVAENSSLHPESGQENGATSPHFS | 2.65 |
| FVAENSSLHPESGQENHATSPHFS | 2.97 |
| FVAENSSLHPESGQENIATSPHFS | 2.69 |
| FVAENSSLHPESGQENKATSPHFS | 2.2 |
| FVAENSSLHPESGQENLATSPHFS | 2.56 |
| FVAENSSLHPESGQENMATSPHFS | 2.46 |
| FVAENSSLHPESGQENNATSPHFS | 2.95 |
| FVAENSSLHPESGQENPATSPHFS | 2.76 |
| FVAENSSLHPESGQENQATSPHFS | 2.32 |
| FVAENSSLHPESGQENRATSPHFS | 2.24 |
| FVAENSSLHPESGQENSATSPHFS | 2.73 |
